Assays:
[1] = target: BK α subunit (mSlo1) pseudo-wild-type with N200C (S3-S4 loop) (mouse); experiment: cross-linking
[2] = target: BK α subunit (mSlo1) pseudo-wild-type with K296C (S6 flank) (mouse); experiment: cross-linking

| extent of disulfide crosslinking [1] [%] | extent of disulfide crosslinking [2] [%] | Binder |
| --- | --- | --- |
| 30 |  | BK β4 subunit pseudo-wild-type with A43C (TM1 flank), 3X FLAG (natural protein) MAKLRVAYEYTEAEDKSIRLGLFLIISGVVSLFIFGFAWLSPCLQDLQATEANCTVLSVQQIGEVFECTFTCGADCRGTSQYPCVQVYVNNSESNSRALLHSDEHQLLTNPKCSYIPPCKRENQKNLESVMNWQQYWKDEIGSQPFTCYFNQHQRPDDVLLHRTHDEIVLLHAFLWPLVTFVVGVLIVVLTICAKSLAVKAEAMKKRKFS |
|  | < 30 | BK β4 subunit pseudo-wild-type with V169C (TM2 flank), 3X FLAG (natural protein) MAKLRVAYEYTEAEDKSIRLGLFLIISGVVSLFIFGFAWLSPALQDLQATEANCTVLSVQQIGEVFECTFTCGADCRGTSQYPCVQVYVNNSESNSRALLHSDEHQLLTNPKCSYIPPCKRENQKNLESVMNWQQYWKDEIGSQPFTCYFNQHQRPDDVLLHRTHDEICLLHAFLWPLVTFVVGVLIVVLTICAKSLAVKAEAMKKRKFS |
